Results as given in the Human Domainome abundance scans (Beltran et al. 2025).
± gives the uncertainty stated by the source.

B1: POU domain, class 3, transcription factor 4, residues 280 to 335; numbered along this chain, P49335 (parent)
chain: KKRTSIEVSVKGVLETHFLKCPKPAAQEISSLADSLQLEKEVVRVWFCNRRQKEKR

Variants of: B1
Test: abundance fitness (aPCA) (normalised: wild type 0, dead -1); higher = more abundant; growth selection in yeast, the domain comes from the species named
Conditions: Homo sapiens
KKRTSIEVSVKGVLESHFLKCPKPAAQEISSLADSLQLEKEVVRVWFCNRRQKEKR [T16S] showed an abundance fitness of 0.217 ± 0.13. Variant KKRTSIEVSVKGVLETHFLKCPKPAAQEISSLADSLQLEKEVVRVWFCNRRQKFKR [E54F] has an abundance fitness of -0.836 ± 0.44. Work on KKRTSIEVSVKGVLETHFLKCPKPAAQEISSLADSLQLEKEVRRVWFCNRRQKEKR [V43R] yielded an abundance fitness of -0.738 ± 0.15. KKRTSIEVSVKGVLETHFLKCPKPAAQEISSLADSLQLEKEVLRVWFCNRRQKEKR [V43L] showed an abundance fitness of -0.437 ± 0.15. With KKRTSIEVSVKGVLETHFLKCPKPAAQEISSLADSLQYEKEVVRVWFCNRRQKEKR [L38Y] the abundance fitness was -0.483 ± 0.33. KKRTSIEVSVKGVLETHFLKCPKPAAQEISSLADSLQLEKEVVRVWFCNRRQKEKW [R56W] showed an abundance fitness of -0.393 ± 0.18. KKRTSIEVSVKGVLETHFLKCPKPAAQEISSLADSLQLEKEVVRVWFCNRQQKEKR [R51Q] gave an abundance fitness of -0.237 ± 0.18. KKRTSIEVSVKGVLETHFLKCFKPAAQEISSLADSLQLEKEVVRVWFCNRRQKEKR [P22F] showed an abundance fitness of -0.732 ± 0.23. For KKRTSIEVSEKGVLETHFLKCPKPAAQEISSLADSLQLEKEVVRVWFCNRRQKEKR [V10E], the abundance fitness was 0.262 ± 0.28. With KKRTSIEVSVRGVLETHFLKCPKPAAQEISSLADSLQLEKEVVRVWFCNRRQKEKR [K11R] the abundance fitness was -0.076 ± 0.2. Work on KKRTSIEVSVKGVLETHFLKCPKPAAQEISSLADHLQLEKEVVRVWFCNRRQKEKR [S35H] yielded an abundance fitness of 0.345 ± 0.21. KKRTSIEVSVKGVLETHFLKCPHPAAQEISSLADSLQLEKEVVRVWFCNRRQKEKR [K23H] showed an abundance fitness of 0.186 ± 0.22. Variant KKRTSIEVSVKGVLETHFLKCPKPAAQEISSLADSLQLEVEVVRVWFCNRRQKEKR [K40V] has an abundance fitness of 0.097 ± 0.14. With KKRTSIEVSVKGVLETHFLKCPKPAAQEISSLADSLQLEKEVVRVWFQNRRQKEKR [C48Q] the abundance fitness was 0.154 ± 0.16. KKRTSIEVFVKGVLETHFLKCPKPAAQEISSLADSLQLEKEVVRVWFCNRRQKEKR [S9F] gave an abundance fitness of -0.348 ± 0.28. In the case of KKRTSIEVGVKGVLETHFLKCPKPAAQEISSLADSLQLEKEVVRVWFCNRRQKEKR [S9G], the abundance fitness is reported as 0.172 ± 0.2. Variant KKRTSIEVSVKGVLETHFLKCPKPAAQEIMSLADSLQLEKEVVRVWFCNRRQKEKR [S30M] has an abundance fitness of -0.262 ± 0.19. For KKRTSIEVSVKGVLETHFLKCPKPAAQEISSLADSLQLEKEVVRVIFCNRRQKEKR [W46I], the abundance fitness was -0.688 ± 0.25. Variant KKRTSIEVSVKGVVETHFLKCPKPAAQEISSLADSLQLEKEVVRVWFCNRRQKEKR [L14V] has an abundance fitness of -0.788 ± 0.14. In the case of KKRTSIEVSVKGVTETHFLKCPKPAAQEISSLADSLQLEKEVVRVWFCNRRQKEKR [L14T], the abundance fitness is reported as -0.537 ± 0.13. KKRTSIEVSVKGVLETHFLKCPKPAAQEISSLADSLPLEKEVVRVWFCNRRQKEKR [Q37P] showed an abundance fitness of -0.855 ± 0.33. With KKRTSIEVSVKGVLETHFLKCPKPAAQEISSLADSLGLEKEVVRVWFCNRRQKEKR [Q37G] the abundance fitness was 0.177 ± 0.21. Work on KKRTSIEVSVKGVLETHFLKCPKPAAQEISSLAKSLQLEKEVVRVWFCNRRQKEKR [D34K] yielded an abundance fitness of 0.109 ± 0.22. In the case of KKRTSIEVSVKGVLETHFLKCPKPAAQEISSLADSLQLEKQVVRVWFCNRRQKEKR [E41Q], the abundance fitness is reported as -0.792 ± 0.5. KKRTSIEVSVKGVLETHFLKCPKPAAQEISSLADSLQLEKFVVRVWFCNRRQKEKR [E41F] gave an abundance fitness of -0.841 ± 0.23. With KKRTSIEVSVKGVLETHFLKYPKPAAQEISSLADSLQLEKEVVRVWFCNRRQKEKR [C21Y] the abundance fitness was -0.898 ± 0.25. KKRTSIEVSVKGVLETHFLKNPKPAAQEISSLADSLQLEKEVVRVWFCNRRQKEKR [C21N] showed an abundance fitness of 0.31 ± 0.19. KKRTSIEVSVKGVLETHFLKDPKPAAQEISSLADSLQLEKEVVRVWFCNRRQKEKR [C21D] showed an abundance fitness of 0.059 ± 0.21. Variant KKRTSIEVSVKGVLETHFLKRPKPAAQEISSLADSLQLEKEVVRVWFCNRRQKEKR [C21R] has an abundance fitness of -0.742 ± 0.15. For KKRTSIEVSVKGVLETHNLKCPKPAAQEISSLADSLQLEKEVVRVWFCNRRQKEKR [F18N], the abundance fitness was -0.859 ± 0.27. Work on KKRTSIEVSVKGVLETHFLKCPKPAAQEISSLADSLQLEKEVVRVWFCLRRQKEKR [N49L] yielded an abundance fitness of -0.479 ± 0.14. KKRTSIECSVKGVLETHFLKCPKPAAQEISSLADSLQLEKEVVRVWFCNRRQKEKR [V8C] gave an abundance fitness of -0.326 ± 0.23. Variant KKRTSIEVSVKGVLETHFLKCPKPAAQEISSLADSLQLEKEVVRVWKCNRRQKEKR [F47K] has an abundance fitness of -1.16 ± 0.36. Work on KKRTSIEVSVKGVLETHFLKCPKPAAQEISSLADSLQLEKEVVRVWLCNRRQKEKR [F47L] yielded an abundance fitness of -0.868 ± 0.17. In the case of KKRTSIEVSVKGVLETHFLKCPKPAAQEISSLADSLQLEKEVVRSWFCNRRQKEKR [V45S], the abundance fitness is reported as 0.097 ± 0.15. Variant KKRTSIEVSVKGVLETHFLKCPKPAAQEISSLADSLQLEKEVVRRWFCNRRQKEKR [V45R] has an abundance fitness of -0.062 ± 0.13. For KKRTSIEVSVKGVLETHFLKCPKPAAQEISSLADSLQLEKEVVRVWFCNMRQKEKR [R50M], the abundance fitness was -0.692 ± 0.34. Variant KKRTSIEVSVKGVLETHFLKCPKPAAQEISSLADSLQLEKEVVRVWFCNERQKEKR [R50E] has an abundance fitness of -0.814 ± 0.21. KPRTSIEVSVKGVLETHFLKCPKPAAQEISSLADSLQLEKEVVRVWFCNRRQKEKR [K2P] gave an abundance fitness of -0.559 ± 0.27. For KKRTSIEVSVKGVLETHFLKCPKPAAQEISSLADSLQLEKEVVRVWFCNRRQKETR [K55T], the abundance fitness was -0.417 ± 0.2. For KKRTSIEVSVKGVLETHFLKCPKPAAQEISSMADSLQLEKEVVRVWFCNRRQKEKR [L32M], the abundance fitness was -0.425 ± 0.27. KKRTSIEVSVKGVLETHFLKCPKPAAQEISSSADSLQLEKEVVRVWFCNRRQKEKR [L32S] showed an abundance fitness of -0.732 ± 0.24. In the case of KKRTSIEVSVKGVLETHFLKCPKPAAQEISSLDDSLQLEKEVVRVWFCNRRQKEKR [A33D], the abundance fitness is reported as -0.96 ± 0.31. For KKRTSIEVSVKGVLETHFLKCPKPAAQEISSLIDSLQLEKEVVRVWFCNRRQKEKR [A33I], the abundance fitness was -0.802 ± 0.31. KKTTSIEVSVKGVLETHFLKCPKPAAQEISSLADSLQLEKEVVRVWFCNRRQKEKR [R3T] showed an abundance fitness of 0.205 ± 0.14. Work on KKRTSILVSVKGVLETHFLKCPKPAAQEISSLADSLQLEKEVVRVWFCNRRQKEKR [E7L] yielded an abundance fitness of -0.163 ± 0.087. With KKRTSIEVSVKKVLETHFLKCPKPAAQEISSLADSLQLEKEVVRVWFCNRRQKEKR [G12K] the abundance fitness was -0.009 ± 0.35.
